Results reported in patent US20230212305A1 (published 2023).

How the values were obtained:
human ABCG2 = target: T1, human ABCG2 (human, UniProt Q9UNQ0 1-655); assay: flow cytometry (FACS) on 293T_ABCG2_OX cells
T1 construct: also called hG2; KPG2
T1 sequence: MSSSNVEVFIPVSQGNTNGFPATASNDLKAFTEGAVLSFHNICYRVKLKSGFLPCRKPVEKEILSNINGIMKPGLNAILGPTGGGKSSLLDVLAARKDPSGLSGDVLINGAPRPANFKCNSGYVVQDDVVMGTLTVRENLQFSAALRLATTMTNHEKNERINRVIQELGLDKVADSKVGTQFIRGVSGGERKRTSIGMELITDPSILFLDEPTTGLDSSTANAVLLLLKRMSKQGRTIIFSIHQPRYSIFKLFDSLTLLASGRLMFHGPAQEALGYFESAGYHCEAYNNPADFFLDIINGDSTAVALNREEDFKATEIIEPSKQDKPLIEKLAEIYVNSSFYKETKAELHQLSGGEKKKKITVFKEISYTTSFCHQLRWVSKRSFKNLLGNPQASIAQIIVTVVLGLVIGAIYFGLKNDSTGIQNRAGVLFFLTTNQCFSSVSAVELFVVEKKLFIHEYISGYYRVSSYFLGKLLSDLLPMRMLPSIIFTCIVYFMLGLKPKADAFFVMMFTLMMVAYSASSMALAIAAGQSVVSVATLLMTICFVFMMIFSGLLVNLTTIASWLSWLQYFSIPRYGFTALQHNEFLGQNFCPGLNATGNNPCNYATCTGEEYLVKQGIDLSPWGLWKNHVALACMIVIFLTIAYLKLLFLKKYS

[1] = target: T2, cynomolgus ABCG2 (Macaca fascicularis) (Macaca fascicularis (cynomolgus), UniProt Q5MB13 1-654 (rhesus entry)); assay: flow cytometry on cells expressing cynomolgus ABCG2; paragraph 395: non-significant binding = -
T2 construct: also called cABCG2
T2 sequence: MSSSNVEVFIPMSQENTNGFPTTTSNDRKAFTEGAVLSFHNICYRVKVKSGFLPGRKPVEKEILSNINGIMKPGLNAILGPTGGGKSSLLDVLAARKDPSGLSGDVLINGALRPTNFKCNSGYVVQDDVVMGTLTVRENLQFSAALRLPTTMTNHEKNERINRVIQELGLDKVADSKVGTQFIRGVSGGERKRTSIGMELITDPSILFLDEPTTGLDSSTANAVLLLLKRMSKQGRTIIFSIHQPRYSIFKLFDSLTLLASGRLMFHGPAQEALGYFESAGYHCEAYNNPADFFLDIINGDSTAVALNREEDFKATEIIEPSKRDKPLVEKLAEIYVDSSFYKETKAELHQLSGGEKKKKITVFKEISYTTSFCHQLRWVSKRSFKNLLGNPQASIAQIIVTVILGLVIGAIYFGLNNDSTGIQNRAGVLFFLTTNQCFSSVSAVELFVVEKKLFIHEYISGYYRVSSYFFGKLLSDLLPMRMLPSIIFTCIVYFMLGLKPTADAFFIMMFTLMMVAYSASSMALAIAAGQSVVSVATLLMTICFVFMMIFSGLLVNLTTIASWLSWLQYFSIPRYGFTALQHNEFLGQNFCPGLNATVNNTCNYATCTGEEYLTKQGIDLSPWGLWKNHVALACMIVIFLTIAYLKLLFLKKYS
Procedure: Cell Binding Assays. Antibody binding to cells was evaluated by flow cytometry. […] After incubating cells on ice for 30 min, cells were washed twice with flow cytometry buffer. Bound antibody was detected with PE-labeled F(ab′)₂ fragment goat anti-human IgG (Jackson ImmunoResearch) and evaluated on an Attune NxT flow cytometer.

binding result (human ABCG2): binds
binding result [1]: no binding
B1: G2.256 mouse (antibody, human IgG1, V domains shown)
VH: EVQLQQSGPELVKPGASLKISCKTFGYSFTGYYMHWVKQSPEKSLEWIGKIVPSTGGTTYNQKFKAKATLTVDKSSFTAYMQLKSLTSEDSAVYYCAREKVYGYDVYYFDYWGQGTTLTVSS
VL: DIVMSQSPATLSVTPGDRVSLSCRASQSISDYLHWYQQKSHESPRLLIKYASQSISGIPSRFSGSGSGSDFTLSINSVEPEDVGVYYCQNGHSFPWTFGGGTKLEIK
notes: Variable regions cloned onto human IgG1 constant heavy chain and human kappa constant light chain
